In data set [1] the target is T1, His‐tagged TfR1 (UniProt P02786 101-760).
T1 construct: transferrin receptor 1 (TfR1); No catalogue number is printed; also called transferrin receptor TfR1; TfR1 receptor; source: bought: Merck
Briefly: BLI; Octet N2; His‐tagged TfR1 (50 μg/mL) immobilised on Ni‐NTA biosensors; HFt 25–500 nM or HFt‐W4 loaded with ellipticine 50–400 nM in solution; single exponential fits. Conditions: both partners purified.

Data set [2] concerns the molecule itself. The data set is described as follows: SEC; analytical HP‐SEC, Agilent AdvanceBio SEC 300 Å column, phosphate‐buffered saline pH 7.4, 1.0 mL/min, UV 220 and 280 nm; purified ferritins before the pH jump.

T1 sequence (P02786 101-760): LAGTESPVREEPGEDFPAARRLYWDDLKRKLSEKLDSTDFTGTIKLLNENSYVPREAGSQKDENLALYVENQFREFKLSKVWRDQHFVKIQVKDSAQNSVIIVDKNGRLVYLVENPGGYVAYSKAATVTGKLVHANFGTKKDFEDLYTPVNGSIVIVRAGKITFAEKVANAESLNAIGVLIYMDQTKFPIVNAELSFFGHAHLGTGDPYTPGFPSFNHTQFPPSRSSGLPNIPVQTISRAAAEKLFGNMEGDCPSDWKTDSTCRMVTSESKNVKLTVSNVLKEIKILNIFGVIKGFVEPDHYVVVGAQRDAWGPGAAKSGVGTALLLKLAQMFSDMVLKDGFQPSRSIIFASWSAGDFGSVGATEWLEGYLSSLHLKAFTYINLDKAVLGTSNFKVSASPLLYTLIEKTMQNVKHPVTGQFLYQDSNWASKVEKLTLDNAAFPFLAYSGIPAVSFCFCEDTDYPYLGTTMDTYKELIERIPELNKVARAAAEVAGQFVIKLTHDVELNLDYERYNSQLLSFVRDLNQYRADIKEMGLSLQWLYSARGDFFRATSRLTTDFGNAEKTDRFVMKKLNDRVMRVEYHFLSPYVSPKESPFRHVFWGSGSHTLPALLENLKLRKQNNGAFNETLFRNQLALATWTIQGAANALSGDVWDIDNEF

B1: HFt‐W4 (natural protein, human, UniProt P02794 1-183, looked up)
chain: MTTASTSQVRQNYHQDSEAAINRQINLELYASYVYLSMSYYFDRDDVALKNFAKYFLWQSWEEREHAEKLMKLQNQRGGRIFLQDIKKPDCDDWESGLNAMECALHLEKNVNQSLLELHKLATDKNDPWLCDFIETHYLNEQVKAIKELGDWVTNLRKMGAPESGLAEYLFDKHTLGDSDNES
notes: human ferritin heavy chain (H ferritin) with four substitutions to tryptophan; synthetic gene in pET22b; 24-mer cage; In the BLI experiment the cage was loaded with ellipticine (a small molecule, about 98 molecules per cage) by a pH jump; the protein is the same; also called HFt‐W4 mutant; hydrophobicity‐enhanced ferritin nanoparticle; source: E. coli, purified (ammonium sulfate fractionation, …)
In the case of B1, the affinity in data set [1], expressed as Kd, was 25 nM. For the same molecule, the “stoichiometry N” value in data set [2] came to 24.

B2: HFt‐W6 (natural protein, human, UniProt P02794 1-183, looked up)
chain: MTTASTSQVRQNYHQDSEAAINRQINLELYASYVYLSMSYYFDRDDVALKNFAKYFLWQSWEEREHAEKLMKLQNQRGGRIFLQDIKKPDCDDWESGLNAMECALHLEKNVNQSLLELHKLATDKNDPWLCDFIETHWLNEQVKAIKELGDWVTNLRKMGAPESGLAEYLWDKHTLGDSDNES
notes: human ferritin heavy chain (H ferritin) with six substitutions to tryptophan; synthetic gene in pET22b; 24-mer cage as purified; also called HFt‐W6 mutant; source: E. coli, purified (ammonium sulfate fractionation, heat treatment at 70°C, DNase, Superdex 200 SEC); copies: 24
For the molecule B2, in data set [2], the “stoichiometry N” value is 24.

For the origin of these results see publication PMC10661074 (Protein Science : A Publication of the Protein Society, 2023).
